In US20160002322A1 (INDUSTRY ACADEMIC COOPERATION FOUNDATION HALLYM UNIVERSITY, published 2016):
No end group written: not given here.

Assays:
[1] = biological target: mouse TM4SF5 peptide (mTM4SF5) (mouse); assay: SPR, Biacore T100, 25 C; biotinylated peptide captured on streptavidin-coated CM4 chip, antibody injected at 2-32 nM
Method: (§1) Affinity of anti-hTM4SF5 monoclonal antibody binding to human TM4SF5 peptide (hTM4SF5) and mouse TM4SF5 peptide (mTM4SF5) was measured using Biacore T100 (Biacore) at 25° C. Biotinylated peptides were captured on individual flow cell surface of a CM4 sensor chip coated with streptoavidin. Biotin served as a negative control. Anti-TM4SF5 monoclonal antibody at concentrations ranging from 2 to 32 nM was injected at a flow rate of […]. Data were evaluated using Biacore Bia evaluation software (version 3.0).

[2] = biological target: T1, hTM4SF5 peptide (138-NRTLWDRCEAPPRV-151) (human, also: biotinylated for SPR capture (position not given here)); assay: SPR (Biacore T100, 25 C), biotinylated hTM4SF5 peptide captured on a streptavidin-coated CM4 chip, antibody injected at 2 to 32 nM
T1 construct: also called human TM4SF5 peptide
T1 peptide: NRTLWDRCEAPPRV
Method: as §1

[3] = biological target: T1, hTM4SF5 peptide (138-NRTLWDRCEAPPRV-151); assay: SPR, Biacore T100, 25 C; biotinylated peptide captured on streptavidin-coated CM4 chip, antibody injected at 2-32 nM; human TM4SF5 (not mouse); peptide on the chip per methods
Method: as §1

[4] = biological target: mouse TM4SF5 peptide (mTM4SF5) (mouse); assay: SPR (Biacore T100, 25 C), biotinylated mTM4SF5 peptide captured on a streptavidin-coated CM4 chip, antibody injected at 2 to 32 nM
Method: as §1

B1: anti-TM4SF5 monoclonal antibody 2D4-18 (antibody, V domains shown)
VH: GDLVKPGGSLKLSCAASGFTFSSYGMSWVRQTPDKRLEWVATISSGGGYTYYPDSVKGRFTISRDNAKNTLYLQMRSLKSEDTAMYYCARHEGFTTYYFDYWGQGTTLTVSS
VL: LSLPVSLGDQASISCRSSQSILHSSGNTYLEWYLQKPGQSPKLLIYKVSNRFSGVPDRFSGSGSGTDFTLKISRVEAEDLGVYYCFQGSHVPFTFGSGTKLEIKR
notes: DyLight 750-labelled in the biodistribution experiment; also called TM4SF5-targeted mAb (2D4-18); anti-hTM4SF5 monoclonal antibody
Work on B1 yielded a Kd [1] of roughly 2 nM, a Kd [2] of 2.74 nM and a Kd [3] of roughly 2 nM. The Kd [4] was 1.87 nM.
